Usually stoichiometry N stands for a count of units in the complex or per binding partner.

Sequences and labels used below:
B1: refolded methionine adenosyltransferase II catalytic α2 subunit (human MAT2A) (enzyme)
chain: not shown
notes: human MAT2A ORF from lymphocyte RNA, non-tagged; all cloned ORFs carried A233V and G193S against previously reported cDNAs; Dimer by gel filtration at low concentration, dimer and tetramer at higher concentration; Runs as a double band (α2 and α2′) on SDS-PAGE; The ITC methods say only 'α2 subunit'; also called MAT α2

Series [1] deals with the molecule itself. Kind of series: SEC; analytical gel filtration on Superose 12 10/300 GL, refolded α2 at higher protein concentration (200 µg injected), 20 mM Tris/HCl pH 8, 10 mM MgSO4, 150 mM KCl; detection by MAT activity and dot blot. A general note: Size exclusion chromatography separates by hydrodynamic size, large species first.
Series [2] concerns the molecule itself. As to the kind of experiment: SEC; analytical gel filtration on Superose 12 10/300 GL, refolded α2 50 µg injected, 20 mM Tris/HCl pH 8, 10 mM MgSO4, 150 mM KCl; detection by MAT activity and dot blot.
Series [3] has as its target B1. As to the kind of experiment: SEC; equimolar refolded α2 and β (wild type, mutant or truncated) mixed 1 h at 4°C, hetero-oligomer isolated on Biogel A 1.5 m in 50 mM Tris/HCl pH 8, 10 mM MgSO4, 50 mM KCl; peak on SDS-PAGE, densitometric scanning of Coomassie-stained bands. Particulars: both partners purified.

As for B1, the “stoichiometry N” value in series [1] came to 4; in series [2], 2.

B2: ΔS16 truncated β subunit of methionine adenosyltransferase II (domain or fragment, human)
chain: GSHSCRLVEEEVNIPNRRVLVTGATGLLGRAVHKEFQQNNWHAVGCGFRRARPKFEQVNLLDSNAVHHIIHDFQPHVIVHCAAERRPDVVENQPDAASQLNVDASGNLAKEAAAVGAFLIYISSDYVFDGTNPPYREEDIPAPLNLYGKTKLDGEKAVLENNLGAAVLRIPILYGEVEKLEESAVTVMFDKVQFSNKSANMDHWQQRFPTHVKDVATVCRQLAEKRMLDPSIKGTFHWSGNEQMTKYEMACAIADAFNLPSSHLRPITDSPVLGAQRPRNAQLDCSKLETLGIGQRTPFRIGIKESLWPFLIDKRWRQTVFH
In the case of B2, the “(α2+α2′)/β subunit ratio” value in series [3] came to 2.
